Data reported in patent US20150203575A1 (Genentech, published 2015).

B1: mCD99-Fc (Fc fusion, mouse, UniProt Q8VCN6 29-137, looked up)
chain: DDFNLGDALEDPNMKPTPKAPTPKKPSGGFDLEDALPGGGGGGAGEKPGNRPQPDPKPPRPHGDSGGISDSDLADAAGQGGGGAGRRGSGDEGGHGGAGGAEPEGTPQG
modifications: three O-glycans NeuAc1-2Hex1HexNAc1
notes: also called mouse CD99-Fc; mCD99 (SPR analyte); not shown: Fc
B2: hNPDC1-Fc (Fc fusion)
chain: GHPDVAACPGSLDCALKRRARCPPGAHACGPCLQPFQEDQQGLCVPRMRRPPGGGRPQPRLEDEIDFLAQELARKESGQSTPPLPKDRQRLPEPATLGFSARGQGLELGLPSTPGTPTPTPHTSLGSPVSSDPVHMSPLEPRGGQGD
modifications: sialylated O-glycans
notes: Whole entry named; also called human NPDC1-Fc; hNPDC1 (SPR analyte); not shown: Fc
B3: hNPDC1-His (ligand, not shown: small tags and cut ends)
chain: B2 chain
modifications: Sialylated O-glycans, which the patent says are needed for PILRα binding, cannot be carried by the letters
notes: also called hNPDC1-His (WT); hNPDC1-His (mut) (labels name the immobilised hPILRα form)
B4: hPILRαR126A expressed on 293T cells (receptor)
chain: QPSGSTGSGPSYLYGVTQPKHLSASMGGSVEIPFSFYYPWELATAPDVRISWRRGHFHRQSFYSTRPPSIHKDYVNRLFLNWTEGQKSGFLRISNLQKQDQSVYFCAVELDTRSSGRQQWQSIEGTKLSITQAVTTTTQRPSSMTTTWRLSSTTTTTGLRVTQGKRRSDSWHISLETAVGVAVAVTVLGIMILGLICLLRWRRRKGQQRTKATTPAREPFQNTEEPYENIRNEGQNTDPKLNPKDDGIVYASLALSSSTSPRAPPSHRPLKSPQNETLYSVLKA
notes: also called human PILRαR126A; hPILRαR126A transfectants
B5: mPILRαR133A expressed on 293T cells (receptor)
chain: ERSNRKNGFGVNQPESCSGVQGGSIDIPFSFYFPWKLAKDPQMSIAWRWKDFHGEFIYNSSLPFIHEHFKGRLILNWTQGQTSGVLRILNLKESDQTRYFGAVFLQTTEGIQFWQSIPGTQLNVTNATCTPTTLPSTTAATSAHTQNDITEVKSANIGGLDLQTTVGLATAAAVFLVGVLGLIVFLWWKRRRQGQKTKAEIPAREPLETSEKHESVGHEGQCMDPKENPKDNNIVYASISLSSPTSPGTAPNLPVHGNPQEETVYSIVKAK
notes: also called mouse PILRα133A; mPILRαR133A transfectants
B6: human CD99 expressed on 293T cells (ligand, UniProt P14209 23-185, looked up)
chain: DGGFDLSDALPDNENKKPTAIPKKPSAGDDFDLGDAVVDGENDDPRPPNPPKPMPNPNPNHPSSSGSFSDADLADGVSGGEGKGGSDGGGSHRKEGEEADAPGVIPGIVGAVVVAVAGAISSFIAYQKKKLCFKENAEQGEVDMESHRNANAEPAVQRTLLEK
notes: whole, on cells; also called hCD99; hCD99 transfectants
B7: mouse CD99 expressed on 293T cells (ligand, UniProt Q8VCN6 29-175, looked up)
chain: DDFNLGDALEDPNMKPTPKAPTPKKPSGGFDLEDALPGGGGGGAGEKPGNRPQPDPKPPRPHGDSGGISDSDLADAAGQGGGGAGRRGSGDEGGHGGAGGAEPEGTPQGLVPGVVAAVVAAVAGAVSSFVAYQRRRLCFREGGSAPV
modifications: sialylated O-glycans at Thr-45 and Thr-50 (cited as relevant for PILRα recognition)
notes: whole, on cells; also called mCD99; mCD99 transfectants

Legend:
[1] = molecular target: B4; assay: flow cytometry, transfected 293T cells, PILRα-positive cells gated
[2] = molecular target: B5; assay: as above
hPILRαR126A-Fc = molecular target: T1, hPILRαR126A-Fc (human; mouse, UniProt Q9UKJ1 20-197); assay: SPR, hPILRα R126A-Fc immobilized, response difference
T1 construct: Arg mutant of hPILRα-Fc; also called hPILRα R126-Fc; mutant hPILRα; not shown: Fc of mouse IgG2a (PILRα-mIgG2a, called PILRα-Fc)

hCOLEC12-his = molecular target: T2, hCOLEC12-his (human, UniProt Q5KU26 59-742, sialylated O-glycans and N-glycans); assay: flow cytometry, transfected 293T cells, PILRα-positive cells gated
T2 construct: Whole entry named; also called human COLEC12-his; hCOLEC12 (SPR); not shown: his tag
T2 sequence (Q5KU26 59-742 S522P/G606S limits assumed): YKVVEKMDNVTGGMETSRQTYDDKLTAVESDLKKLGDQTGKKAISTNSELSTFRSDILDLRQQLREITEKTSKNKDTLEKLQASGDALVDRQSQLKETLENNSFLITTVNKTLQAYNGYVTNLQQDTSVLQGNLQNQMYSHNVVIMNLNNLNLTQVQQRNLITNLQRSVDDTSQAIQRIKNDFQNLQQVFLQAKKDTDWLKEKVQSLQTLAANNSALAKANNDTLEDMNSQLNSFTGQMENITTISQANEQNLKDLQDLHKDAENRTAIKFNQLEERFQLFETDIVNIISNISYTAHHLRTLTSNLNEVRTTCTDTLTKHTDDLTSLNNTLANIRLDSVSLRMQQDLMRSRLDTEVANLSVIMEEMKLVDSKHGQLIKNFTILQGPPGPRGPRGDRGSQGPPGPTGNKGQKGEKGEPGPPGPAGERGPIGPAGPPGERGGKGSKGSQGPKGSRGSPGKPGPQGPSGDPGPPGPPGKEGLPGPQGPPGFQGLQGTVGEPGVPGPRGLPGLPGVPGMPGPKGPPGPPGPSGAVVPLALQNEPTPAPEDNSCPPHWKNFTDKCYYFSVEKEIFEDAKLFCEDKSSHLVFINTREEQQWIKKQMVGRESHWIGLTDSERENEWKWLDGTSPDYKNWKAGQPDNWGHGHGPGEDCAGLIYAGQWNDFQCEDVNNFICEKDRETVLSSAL

hPILRα-Fc = molecular target: T3, hPILRα-Fc (human; mouse, UniProt Q9UKJ1 20-197); assay: flow cytometry, transfected 293T cells
T3 construct: also called human PILRα-Fc; WT hPILRα-Fc; not shown: Fc of mouse IgG2a (PILRα-mIgG2a, called PILRα-Fc)

mPILRα-Fc = molecular target: T4, mPILRα-Fc (mouse, UniProt Q2YFS3 32-198); assay: flow cytometry, transfected 293T cells
T4 construct: also called mouse PILRα-Fc; WT mPILRα-Fc; not shown: Fc of mouse IgG2a (PILRα-mIgG2a, called PILRα-Fc)
T4 sequence (Q2YFS3 32-198): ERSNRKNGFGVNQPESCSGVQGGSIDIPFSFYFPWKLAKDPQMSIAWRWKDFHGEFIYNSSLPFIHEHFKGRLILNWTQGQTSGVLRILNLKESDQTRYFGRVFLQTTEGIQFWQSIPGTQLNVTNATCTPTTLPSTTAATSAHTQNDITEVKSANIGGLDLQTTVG

B1: no binding [1]; no binding [2].

B2: no binding [1]; no binding [2].

B3: no binding (tested: 1 µM) (hPILRαR126A-Fc).

B4: no binding (hCOLEC12-his).

B5: no binding (hCOLEC12-his).

B6: no binding (hPILRα-Fc); no binding (mPILRα-Fc).

B7: binds (hPILRα-Fc); binds (mPILRα-Fc).
